From the nanobody polyreactivity screen of Harvey et al. (2022)

Experiment: yeast display, Sf9 membrane polyspecificity reagent, FACS + sequencing; frameworks hold sequencing errors
Procedure, shortened: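 A synthetic nanobody library was expressed on Saccharomyces cerevisiae BJ5465 by galactose induction for 36–48 hours. The library was stained for 1 hour at 4 °C with 10% biotinylated, detergent-solubilized Sf9 membrane reagent and enriched with streptavidin microbeads before FACS. Low and high (top ~1%) gates were set on anti-HA fluorescence for expression and streptavidin fluorescence for reagent binding, and each polyreactivity label reflects the gate of origin.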

## QVPLVESVGGLVQAGGSLRISCAASGGIFRYYAMGRYRQAPGNERELVAAITSSGTSTYYADSVKGRFTISRDNAKNTVYLQMNSLKPEDTAVYYCAAETYYSIYDYWGQGTQVTVSS
  polyreactivity (PSR sort gate): high polyreactivity

## QVPVVASGGGFVQAGGRLRLSCAASGRTFFYNAMGWYRQAPGKERESTYYADSVKGRFTISRDNAKNTVYLQMNSLKPEDTAVYYFAAATAYVAYEGDKGDYWGQGTQVTVSA
  polyreactivity (PSR sort gate): low polyreactivity

## QVQFEESGGGLVQAGGSLRLSCAASGSTFQGYAMGWYRQAPGKERELVAAISRSGGRTYYADSVKGRFTISRDNAKNTVYLQMNSLKPEDTAVYYCAAEGHELTEGDSWGQGTQVTVSS
  polyreactivity (PSR sort gate): low polyreactivity

## QVQFVESGGGLVQAGGSLRLSCAASGSIFALYAMGWYRQAPGKERELVAAISYRGGRTYYADSVKGRFTISRDNAKNTVYLQMNSLKPEDTAVYYCATDFPGKFDYWGQGTQVTVSS
  polyreactivity (PSR sort gate): low polyreactivity

## QVQFVESGGGLVQAGGSLRLSCAASGSIFIYNAMGWYRQAPGTERELVAAISRGGTNTYYADSVKGRFTISRDNAKNTVYLQMNSLKPEDTAVYYCAARGGYIGSRNNYWGQGTQVTVSS
  polyreactivity (PSR sort gate): high polyreactivity

## QVQHEDSGGGLVQAGGSHPLSCAASGSTFRVNAMGWYRQAPGKERELVAAISRRGGSTYYADSVKGRFTISRDNSKNTVYLQMNCLKPEDTAVYYCAAERLGTVQDDYWGQGTQVTVSS
  polyreactivity (PSR sort gate): high polyreactivity

## QVQHEDSGGGLVQAGGSLRLSCAASGRIFLYYAMGWYRQAPGKERELVAAISSGTSTYYADSVKGRFTISRDNAKNTVYLQMNSLKPEDTAVYYCAAYYYSYPTNGGYGYWGQGTQVTVSS
  polyreactivity (PSR sort gate): low polyreactivity

## QVQHEESGGGLVQAGGSLRISCAASGTTFFTYAMGWYRPAPGKEREFVAAISWSDDSTYYADSVKGRFTISRDYAKNTVYLQMNSLKPEDTAVYYCAAEWGQRGGGGYYYWGQGTQVTVSS
  polyreactivity (PSR sort gate): low polyreactivity

## QVQHVASGGGLVQAGGSLRLSCAASGSTFVYYAMGWYRQAPGKERELFADITKSGGSTFYAESVKGRFTISRDNAKNTVYLQMNSLKPEDTAVFYCGARYKGQYYRQGRHDYWGQGSQVTVSS
  polyreactivity (PSR sort gate): high polyreactivity

## QVQHVDSGGGLVQAGGSLRLSCAASGFIFSYYAMGWYRQAPVKERELVAGISYNGDRTYYADSVKGRFTISRDNAKNTFYLQMKSLKPEDTAVYYCNVVWVLGGWYDLEYDYWGQGTQVTVSS
  polyreactivity (PSR sort gate): high polyreactivity

## QVQHVDSGGGLVQAGGSLRLSCAASGRILYSYAMGWYRQAPGKERELVAVITTRGGTYYADSVKGRFTISRDNAKNTVYLQMNSLKPEDTAVYYCNARRYPSYKYDYWGQGTQVTVSS
  polyreactivity (PSR sort gate): high polyreactivity

## QVQHVESAGGLVQAGGSLPLRCAASGSTFSPNALGGYSHAHGKERELVARITRSGSRTSYADSLKGRFTISRDNAKNPVYFQMNSLKPEDTAVYYCAAEGPKQYDYWGQGTHVTVSS
  polyreactivity (PSR sort gate): low polyreactivity

## QVQHVESAGGLVQAGGSLRLSCAASGRTFDYNAMGWYRQAPGKERELVAAISWRGGNTYYADSVKGRFTISRDNAKNTVYLQMNSLKPEDTAVYYCGAVYRYSTRNYGYWGQGTQVTVSS
  polyreactivity (PSR sort gate): high polyreactivity

## QVQHVESAGGLVQAGGSLRLSCAASGSIFPYNAMGWYRQAPGKERELVAAISYSGSTTYYADSVKRRFTISRDNSKNTVYLQMNSLKPEDTAVYYCNTLSWYQYDYWGQGTQVTVSS
  polyreactivity (PSR sort gate): high polyreactivity

## QVQHVESGGALVQAAGSLSLRCAASGSTFGYNAMGWYRQAPSKEMELVAVITDSGGSSYYADSVKGRFTISRDNPKNTVYVQMHSLNPEDTAVYYCAKFYGLVVSGHVILSGFEYWGQGTLVTVSS
  polyreactivity (PSR sort gate): low polyreactivity

## QVQHVESGGALVQAGGSLRLSCAASGLIYALSAMGWDRQAPGKEMELVAAIDWSGGSTYYADSVKGRFTISRDNAKNTVYVQMNCLKPEDTAVYYCAADISSSPGNDYWGQGTQLTVSS
  polyreactivity (PSR sort gate): high polyreactivity

## QVQHVESGGCLVQAGGSLRLSCAASGITFEWYAMGWYRQAPGKESELVADITSGDSTNYADSVKGRFTISRDNAQNTVYLQMNSLKPEDTAVYYWAATFIGQFFSWYYYWGQGTQVTVSS
  polyreactivity (PSR sort gate): low polyreactivity

## QVQHVESGGDLVQAGGSLRLSCAASGSTSFHNAMGWDIQAPGKEREFVAAMSGSGDRTNYADSVKGRFTISRDNAKNTVYLQMNSLKPEDTAVYYCAARGQPGRRTSSGFFSGGYWGQGTQVTVSS
  polyreactivity (PSR sort gate): high polyreactivity

## QVQHVESGGGLDQAGGSLRFSCAASGTIFVYNAMGSYREAPGKERELVAAMDTVGSTNYADSVKGRFTISRDNAKNTVYLQMNSLKPEDTAVYYCAVVTPYWSFFEQVIPSNYWGQGSQVTVSS
  polyreactivity (PSR sort gate): low polyreactivity

## QVQHVESGGGLDQAGGSLRLSCAASGFIFGWYAMGWYRPAPGKERELVAAITWSGVRTYYADSVKGRFTISRDNAKNTVYLQMHSLKPEDTAVYYCARAGGSVGRGYKDQDGRGDYWGQGTEVTVSS
  polyreactivity (PSR sort gate): low polyreactivity

## QVQHVESGGGLDQAGGSLRLSCAASGFIFYDYMGWDRQAPGKQRELVAVISYSGSSTNYAYSVKGRFTITRDNAKMTVYLQINSLKPEDTAVYYWAARIVNGWDYDFWGQGSQVTVSS
  polyreactivity (PSR sort gate): low polyreactivity

## QVQHVESGGGLFQAGGSLRLSCAASGITFEYYAMGWYRQAPGKERELVAAISGDGSTYYADSVKGRFTISRDNAKNTVYLQMNSLKPEDTAVYYCAAVYYRGFLYYRYYYWGQGTQVTVSS
  polyreactivity (PSR sort gate): high polyreactivity

## QVQHVESGGGLLQAGGSLRLSCAASGRTFGRYAMGWYRPAPGKERELVADIDYGGGSTYYADSVKGRFTISRDNAKNTFYLQMNSLKPEDTAVYYCNAGRDIGWGYHMDYWGQGTQVTVSS
  polyreactivity (PSR sort gate): high polyreactivity

## QVQHVESGGGLVHAGCRLRLSCAASGRTFIKYAMGWYRQAPGTERELVAGISGGGASTYYADSVKGRFTISRDNAKNTVYLQMNSLKPEETAVYYFAKLSPRGRRYDYWGQGTQVTVSS
  polyreactivity (PSR sort gate): high polyreactivity

## QVQHVESGGGLVHAGGSLRLSCAASGTTFYFNPMGWSRQAPGKERELVASITWRGVSTYYADSVKGRFTISRDNAKNTVYLHMNSLNPEDTAVYYCAVAAGIPQRRFYYWGQGTQVTVSS
  polyreactivity (PSR sort gate): high polyreactivity

## QVQHVESGGGLVKAGGSLRLSCAATGSIFSPYAMGWYILAPGKERELVAAISRSGRTHYADSVKGRFTISRDNAKHTVYLQMNSLKADDTAVYFCAAGVVYGYYYWGQGTQVTVSS
  polyreactivity (PSR sort gate): high polyreactivity

## QVQHVESGGGLVQAGASLRLSCAASGFIFPSYVKGWYRQAPWKERDLVATISRSGGSTYYADSVKGRFTISRDNAKNTVYLQMNSLKPEDTAVYYCAAYPYSYLQLMDYWGQGTQVTVSS
  polyreactivity (PSR sort gate): high polyreactivity

## QVQHVESGGGLVQAGCSLRLSCAASGFTFYSYAMGWYSQTPGKERELVASISRTGGGTYYADSVKGSFTISRDNAKNTVSLQMNSLIPVDTAVYYCNASPNIRVRYYYRKYDYWGQGTQVTVSS
  polyreactivity (PSR sort gate): high polyreactivity

## QVQHVESGGGLVQAGCSLRLSCAASGRTFSSNAMGWYRQAHGKVRELVAVISSGGSTYYADSVKGRFTISRDNAKNTVYLEMYSMKPEDTAVYICAAAVGPSGYYYESDYWGQGTQETVSS
  polyreactivity (PSR sort gate): high polyreactivity

## QVQHVESGGGLVQAGGRLRLRCAASGSTFDDNAKGWYIHAPGKERELVAGISDGDDSTNYADSVKGRFTISRDNAKNTVYFQMNRLKPEDTAVYYCNARYVRTYGVRFGYDYWGQGTQLTVSS
  polyreactivity (PSR sort gate): low polyreactivity

## QVQHVESGGGLVQAGGRLRLSCAASGGIYYYAMGWYRQAPGKERELVAAISSGGGNTNYADSVKGRFTISRDNAKNTVYLQMNSLKPEDTAVYYCATDGFIPTYSYTEIGYDYWGQGTQVTVSS
  polyreactivity (PSR sort gate): low polyreactivity

## QVQHVESGGGLVQAGGRLRLSCAASGSTFQLYAMGWYRQAPGKERELVASISWSGGSTYYADSVTGRFTISRDNAKNTVYLQMNSLKPEDTAVYYCNADFWWRYRPGAVFRSYGYWGQGTQVTVSS
  polyreactivity (PSR sort gate): low polyreactivity

## QVQHVESGGGLVQAGGRLRLSCPATGSTFTWYALASYRQAPGKERELVAAISRGGSTNYADSVKGRFTISRDNAKNSVYLQMNSLIPEDTAVYYCAAESYWRDVYWGQGTQVTVSS
  polyreactivity (PSR sort gate): low polyreactivity

## QVQHVESGGGLVQAGGSLPLSGAASGLTFTRYAMGWYRQAPGKESELVAAISKNGGSTYYADSVTGRFTISRDNAKYTVYLQMNSLKPEDTAVYYCAARRSTSYPAGYDYWVQGTQVTVSS
  polyreactivity (PSR sort gate): high polyreactivity

## QVQHVESGGGLVQAGGSLRLCCAATGNTFGINAMGWYRQAPGKERELDASITGSAGSTYYADSVKGRFTISRDNAKNTVYLQMNSLKPEDTAVYYCNAGARGVMSQPWVIKYYYWGQGTQGTVSS
  polyreactivity (PSR sort gate): high polyreactivity

## QVQHVESGGGLVQAGGSLRLRCAASARTFLANAMGWYRQAPGKERELLAAITYSGGRTYYADSVKGRFTISRDNAKNTVYLQMNSLKPEDTAVYYCAAEGKVTSQYTMDYWGLGTQVTVSS
  polyreactivity (PSR sort gate): high polyreactivity

## QVQHVESGGGLVQAGGSLRLRCAASGSTFQYNPMGWYRQAPGKERELVASITRGGNTNYADSVKGRFTISRDNAKNTVYLQMNSLKPEDTAVYYCAARSTYRVSHVDYWGQGTQVTVSS
  polyreactivity (PSR sort gate): low polyreactivity

## QVQHVESGGGLVQAGGSLRLSCAASALTFSSNAMGWYRQAPGKERELVAVITNGGSTNYADSVKGRLTISRDNAKNTVYLQMNSLKPEDTAVYYCAIDGGPAQDIGMDYWGQGTHVTVSS
  polyreactivity (PSR sort gate): low polyreactivity

## QVQHVESGGGLVQAGGSLRLSCAASGDIFRPNAMGWYRQAPGKERELVAAITRSGGTTYYADSVKGRFTISRDYAKNTVYLQMNSLNPEDTAVYYCAARGLQYYRYDYWGQGTQVTVSS
  polyreactivity (PSR sort gate): low polyreactivity

## QVQHVESGGGLVQAGGSLRLSCAASGFIFARNAMGWYRQAPGKERELVAAITWSGGSTYADSVKGRFTISRDNAKNTVYLQMNSLKPEDTAVYYCAADSYPAYLGFVGFDYWGQGTQVTVSS
  polyreactivity (PSR sort gate): low polyreactivity

## QVQHVESGGGLVQAGGSLRLSCAASGFIFPTYAMGWYRQAPGKERELVATITTNAGGTHYADSVKGRFTISRDNAKNTVYLQMNSLKPEDTAVYYCAAKQYRPKQRKYWTRIYDYWGQGTQVTVSS
  polyreactivity (PSR sort gate): low polyreactivity

## QVQHVESGGGLVQAGGSLRLSCAASGFIFRRYAMGWYRQAPGKERELVAAISWRSGSTYYADSVKGRFTISRDNAKNTVYLQMNSLKPEDTAVYYCAAKDQATYQLNYWGQGTQVTVSS
  polyreactivity (PSR sort gate): high polyreactivity

## QVQHVESGGGLVQAGGSLRLSCAASGFIFRRYPLGWYRQAPGKERELVASISSGGNTDYADSVKGRFTISRDNAKNTVYLQMKSLNPEDTAVYYCNARVRWYPGYDYWGQGTQVTVSS
  polyreactivity (PSR sort gate): high polyreactivity
